The source of these data is patent US20230112035A1 (AstraZeneca / MedImmune, published 2023).

Residue numbers refer to the chain shown, from its start. In names and notes the source's numbering stands. Where two headings read alike, the source gives them in different places.

Test [1] deals with T1, recombinantly produced αvβ8 integrin protein (UniProt P06756 31-992; P26012 43-684).
T1 chain 1: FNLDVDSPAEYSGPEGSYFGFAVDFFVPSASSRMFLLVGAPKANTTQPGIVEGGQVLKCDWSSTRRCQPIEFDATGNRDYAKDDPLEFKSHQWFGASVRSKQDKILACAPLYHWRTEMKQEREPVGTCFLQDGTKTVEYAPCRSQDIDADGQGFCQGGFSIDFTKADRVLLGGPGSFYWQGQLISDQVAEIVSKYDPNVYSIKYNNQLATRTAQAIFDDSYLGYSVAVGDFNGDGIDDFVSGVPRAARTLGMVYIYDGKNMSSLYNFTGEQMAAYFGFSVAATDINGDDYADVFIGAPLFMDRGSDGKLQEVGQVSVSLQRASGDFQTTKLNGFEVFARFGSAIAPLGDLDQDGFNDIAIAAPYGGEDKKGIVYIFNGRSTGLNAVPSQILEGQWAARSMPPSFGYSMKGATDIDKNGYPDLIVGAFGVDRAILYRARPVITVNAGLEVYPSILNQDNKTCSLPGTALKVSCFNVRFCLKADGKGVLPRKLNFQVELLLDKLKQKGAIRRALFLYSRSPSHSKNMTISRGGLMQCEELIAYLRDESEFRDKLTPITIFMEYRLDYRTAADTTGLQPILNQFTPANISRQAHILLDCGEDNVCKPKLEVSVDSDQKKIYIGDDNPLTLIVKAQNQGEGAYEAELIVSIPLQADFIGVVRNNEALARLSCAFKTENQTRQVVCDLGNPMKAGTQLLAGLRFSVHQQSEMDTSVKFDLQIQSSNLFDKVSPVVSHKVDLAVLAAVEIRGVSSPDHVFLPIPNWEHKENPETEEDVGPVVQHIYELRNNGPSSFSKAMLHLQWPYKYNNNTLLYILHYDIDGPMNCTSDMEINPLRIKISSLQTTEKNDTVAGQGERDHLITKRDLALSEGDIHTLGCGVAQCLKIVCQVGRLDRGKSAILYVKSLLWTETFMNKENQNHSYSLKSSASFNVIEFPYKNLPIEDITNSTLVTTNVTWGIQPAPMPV
T1 chain 2: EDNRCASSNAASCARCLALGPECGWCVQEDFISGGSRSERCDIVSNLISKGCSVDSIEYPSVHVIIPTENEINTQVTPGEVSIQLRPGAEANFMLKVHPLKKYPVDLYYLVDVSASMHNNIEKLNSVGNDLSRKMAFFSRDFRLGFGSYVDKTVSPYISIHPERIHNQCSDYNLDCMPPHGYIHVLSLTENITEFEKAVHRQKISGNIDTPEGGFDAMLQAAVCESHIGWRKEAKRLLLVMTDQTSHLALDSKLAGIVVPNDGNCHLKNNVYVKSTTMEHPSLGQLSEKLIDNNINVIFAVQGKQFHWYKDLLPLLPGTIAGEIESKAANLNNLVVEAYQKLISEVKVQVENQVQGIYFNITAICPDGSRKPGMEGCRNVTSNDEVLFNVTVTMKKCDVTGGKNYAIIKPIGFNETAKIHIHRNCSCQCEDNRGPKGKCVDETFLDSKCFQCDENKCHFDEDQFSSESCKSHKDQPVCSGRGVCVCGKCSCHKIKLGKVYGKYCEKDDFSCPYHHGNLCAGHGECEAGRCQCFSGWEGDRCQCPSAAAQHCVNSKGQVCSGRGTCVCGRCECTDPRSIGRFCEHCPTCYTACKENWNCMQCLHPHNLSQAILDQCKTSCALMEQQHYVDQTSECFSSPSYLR

Test [2] concerns the target T1, recombinantly produced αvβ8 integrin …. The test can be described thus: Biacore. On the technique in general: In SPR one partner is held on a chip, and binding of the other changes the refractive index at the surface.
For test [3], the target named is human αvβ8 integrin expressed on cells and in tissue (human, UniProt P06756 31-1048; P26012 43-769). The test can be described thus: cell-based or functional assay.
For test [4], the target named is T2, recombinantly produced αvβ8 integrin protein (human, UniProt P06756 31-992; P26012 43-684).
T2 construct: Protein coated on ELISA plates and used in Biacore; also called integrin αvβ8
Put plainly: ELISA screening of position 94 mutants.

Test [5] has as its target T1, recombinantly produced αvβ8 integrin …. The test can be described thus: Biacore; value is an estimate.

B1: Chi-37E1B5 chimeric anti-αvβ8 integrin antibody (antibody, V domains shown)
VH: EVQLVESGGGLVQPGGSLNLSCAVSGFVFSRYWMSWVRQAPGKGLEWIGEINPDSSTINYTSSLKDKFIISRDNAKNTLYLQMNKVRSEDTALYYCACLITTEDYWGQGTSVTVSS
VL: EIVLTQSPSSMYASLGERVTIPCKASQDINSYLSWFQQKPGKSPKTLIYYANRLVDGVPSRFSGSGSGQDYSLTISSLEYEDMGIYYCLQYDEFPYTFGGGTKLEIK
The Kd is the concentration at which binding is half-saturated. B1: the Kd in test [1] and in test [2] was 0.5 nM each time.

B2: B5-15 humanized and affinity optimized anti-αvβ8 integrin antibody (antibody, V domains shown)
VH: EVQLVESGGGLVQPGGSLRLSCAVSGFVFSRSWISWVRQAPGKGLEWIGEINPDSSTINYTSSLKDRFTISRDNAKNSLYLQMNSLRAEDTAVYYCAILITTEDYWGQGTTVTVSS
VL: DIQLTQSPSSLSASVGDRVTITCKASQDINKYLSWFQQKPGKAPKSLIYYANRLVDGVPSRFSGSGSGTDFTLTISSLQPEDFATYYCLQYDVFPYTFGGGTKVEIK
In the case of B2, the “SMAD2/3 phosphorylation in kidney lysates of humanized αvβ8 transgenic mice after UUO (ELISA)” value in test [3] is 1.6 fold. Besides, the Kd in test [1] is 0.166 nM.

B3: MEDI-hu37E1B5-C94I mutant antibody (antibody, V domains shown)
VH: B2 VH with S32Y, I34M
VL: B2 VL with K31S, V93E
notes: IgG; also called humanized anti-αvβ8 integrin antibody C94I
As for B3, the “fold reduction in αvβ8 binding affinity (against MEDI-hu37E1B5 with Cys 94)” value in test [4] was around 3 fold.

B4: hu37E1B5 anti-αvβ8 integrin antibody (UCSF humanized sequence of WO 2013/026004) (antibody, V domains shown)
VH: B2 VH with S32Y, I34M, I98S
VL: EIVLTQSPSSLSLSPGERVTITCKASQDINSYLSWYQQKPGKAPKLLIYYANRLVDGVPARFSGSGSGQDYTLTISSLEPEDFAVYYCLQYDEFPYTFGGGTKLEIK
Turning to B4, the Kd in test [5] was around 490 nM.
